Data taken from patent US7718410B2, “In vivo incorporation of alkynyl amino acids into proteins in eubacteria” (The Scripps Research Institute, priority 2004, dated 2010).

Tested on: E. coli
Assay: Chloramphenicol resistance conferred by the synthetase (amber suppression in the CAT gene)
Assay type: cell-based
Experimental: Following mutagenesis, the pool of synthetases was then passed through positive and negative rounds of selection. The positive selection is based on suppression of an amber stop codon at a permissive site (Asp112) in the chloramphenicol acetyltransferase (CAT) gene. When E. coli cells harboring the MjTyrRS mutant library, the mutated CAT gene and a coexpressed Mj amber suppressor tRNACUA were grown on minimal media in the presence of pPRO-Phe (1 mM) and chloramphenicol (80 μg/mL), the only surviving cells are those cells that contain a mutant synthetase that aminoacylates the tRNACUA with either an endogenous amino acid or pPRO-Phe. The synthetase library genes were then transformed into cells containing a mutated gene encoding the toxic protein barnase, which has three amber mutations at permissive sites (Gln2, Asp44, Gly65). The vector carrying the barnase reporter also contained the suppressor tRNA. Growth of these cells in the absence of pPRO-Phe selected against synthetases capable of accepting endogenous amino acids as a substrate. After three rounds of selection, 96 clones were screened for growth rate dependence on the presence or absence of pPRO-Phe, and eight candidate clones were identified and sequenced. The polynucleotide and amino acid sequences of the eight clones is also provided in SEQ ID NOS: 4 through 19. […]

B1: pPRO-PheRS-1: para-propargyloxyphenylalanine aminoacyl-tRNA synthetase isolate-1, derived from wild-type Methanococcus jannaschii tyrosyl tRNA-synthetase (protein)
chain: MDEFEMIKRNTSEIISEEELREVLKKDEKSAAIGFEPSGKIHLGHYLQIKKMIDLQNAGFDIIILLADLHAYLNQKGELDEIRKIGDYNKKVFEAMGLKAKYVYGSPFQFDKDYTLNVYRLALKTTLKRARRSMELIAREDENPKVAEVIYPIMQVNAIHYAGVDVAVGGMEQRKIHMLARELLPKKVVCIHNPVLTGLDGEGKMSSSKGNFIAVDDSPEEIRAKIKKAYCPAGVVEGNPIMEIAKYFLEYPLTIKRPEKFGGDLTVNSYEELESLFKNKELHPMDLKNAVAEELIKILEPIRKRL
modifications: para-propargyloxyphenylalanine aminoacyl-tRNA synthetase derived from M. jannaschii tyrosyl tRNA-synthetase
notes: para-propargyloxyphenylalanine aminoacyl-tRNA synthetase isolate-1, derived from wild-type Methanococcus jannaschii tyrosyl tRNA-synthetase
For B1, the “chloramphenicol resistance on E. coli, IC50” value (in the absence of pPRO-Phe) was 5 µg/mL and the “chloramphenicol resistance on E. coli, IC50” value (in the presence of pPRO-Phe) was 110 µg/mL.
